Data as given in patent US20040071707A1, “Modulation of cell growth” (priority 2000, published 2004).

B1: K2P-PMSF: proteolytically inactivated K2P (protease domain inactivated with PMSF) (protein)
chain: SYQVICRDEKTQMIYQQHQSWLRPVLRSNRVEYCWCNSGRAQCHSVPVKSCSEPRCFNGGTCQQALYFSDFVCQCPEGFAGKCCEIDTRATCYEDQGISYRGTWSTAESGAECTNWNSSALAQKPYSGRRPDAIRLGLGNHNYCRNPDRDSKPWCYVFKAGKYSSEFCSTPACSEGNSDCYFGNGSAYRGTHSLTESGASCLPWNSMILIGKVYTAQNPSAQALGLGKHNYCRNPDGDAKPWCHVLKNRRLTWEYCDVPSCSTCGLRQYSQPQFRIKGGLFADIASHPWQAAIFAKHRRSPGERFLCGGILISSCWILSAAHCFQERFPPHHLTVILGRTYRVVPGEEEQKFEVEKYIVHKEFDDDTYDNDIALLQLKSDSSRCAQESSVVRTVCLPPADLQLPDWTECELSGYGKHEALSPFYSERLKEAHVRLYPSSRCTSQHLLNRTVTDNMLCAGDTRSGGPQANLHDACQGDSGGPLVCLNDGRMTLVGIISWGLGCGQKDVPGVYTKVTNYLDWIRDNMRP
B2: rsctPA: Recombinant single chain tPA (protein)
chain: B1 chain
B3: kringle 2: kringle 2 domain of tPA purified from K2P by limited elastase digestion and lysine-Sepharose (protein)
chain: CYFGNGSAYRGTHSLTESGASCLPWNSMILIGKVYTAQNPSAQALGLGKHNYCRNPDGDAKPWCHVLKNRRLTWEYCDVPSC

Assays:
HVSMC = HVSMC growth (proliferation assay); format: cell-based, Human
Method: (A and B). HUVEC or HVSMC cultures were incubated with increasing concentrations of PMSF inactivated K2P (K2P-PMSF) or control treated K2P either in the absence (A) or presence (B) of 10 ng/mL bFGF at the concentrations indicated. Angiostatin was included as a positive control for inhibition of bFGF mediated cell growth. HUVEC results represent mean of at least three independent experiments with three different batches of HUVEC. Experiments with HVSMC were repeated twice. (C and D). HUVEC were treated with 100 μg/mL K2P-PMSF and increasing concentrations of either anti-kringle 2 antibody, 7VPA (C) or rsctPA (D) for four days as indicated. Control wells contained M199 and 2% FBS alone. Data represent mean±SE of duplicate experiments with two different batches of HUVEC. […]
3×10^3 cells were plated in 96-well plates and allowed to attach overnight. […] After 4 days of incubation cell number was quantified colorimetrically by the addition of 20 μL CellTiter 96 AQueous One Solution Cell Proliferation Assay (Promega) at 492 nm and 620 nm reference filter. Background absorbance was determined with substrate alone and subtracted from all wells.

HUVEC = experiment: In vitro endothelial cell proliferation assay; format: cell-based, Human; conditions: for bFGF induced EC growth: 10 ng/mL bFGF, non-toxic doses (<40 μg/mL) for K2P fragments; for effect on basal HUVEC/EC growth (substance alone): M199 with 2% FBS, 4 days, colorimetric
Method: Human umbilical vein endothelial cells (HUVEC) were purchased from Clonetics or isolated from umbilical vein cords by mild collagenase treatment as described and cultured in M199 with Earle's salts (Sigma) with 20% heat inactivated fetal bovine serum (Sigma), 100 IU/mL penicillin 100 μg/mL streptomycin (Gibco), 250 ng/mL fungizone (Gibco), 2 mM glutamine (Gibco), 5 IU/mL heparin (Sigma) and 50 μg/mL ECGS (Technoclone, Vienna, Austria). Human vascular smooth muscle cells (HVSMC) were isolated as described.
3×10^3 cells were plated in 96-well plates and allowed to attach overnight. Growth was arrested by incubation with 100 μL reduced growth medium (M199 with 2% FBS) for 24 h. Thereafter anti-tPA antibodies and other reagents were added to wells. K2P (Reteplase), anti-kringle 2 (7VPA) and anti-finger/EGF antibodies (3VPA and 6VPA) were a gift from Technoclone, Vienna, Austria. Anti-kringle 1 (PAM-2), anti-kringle 2 (ESP1) and anti-protease (374B and ESP2) antibodies were purchased from American Diagnostica, Alpha Labs, UK. D-mannitol and LY294002 were obtained from Sigma. VEGF121 and bFGF were purchased from R&D Systems Inc., UK. Recombinant single chain tPA (rsctPA) was obtained from Boehringher Ingelheim. The mutant alatPA was kindly provided by Prof. Roger Lijnen (Center for Molecular and Vascular Biology, Leuven, Belgium). Aprotinin was purchased from Boehringer Mannheim. The tPA peptides (tPA I and tPA II) corresponding to residues 7-17 and 15-26 respectively were synthesized by the Clinical Sciences Centre peptide synthesis facility at Hammersmith and the ICRF peptide unit. Rp-cAMPS and Lavendustin A were obtained from Calbiochem, UK. After 4 days of incubation cell number was quantified colorimetrically by the addition of 20 μL CellTiter 96 AQueous One Solution Cell Proliferation Assay (Promega) at 492 nm and 620 nm reference filter. Background absorbance was determined with substrate alone and subtracted from all wells.
HUVEC were plated at 1×10^5 cells in 12 well plates overnight. Medium was replaced with reduced growth medium overnight followed by addition of anti-K2 antibody. Control wells contained M199 and 2% FBS alone. After 3 days incubation cells were counted in a hemocytometer.

Molecule	HVSMC growth in the presence of bFGF (HVSMC; 10 ng/mL bFGF)	basal HVSMC growth, % of control (HVSMC; highest concentration used (100 μg/mL))	bFGF induced EC growth (HUVEC)	concentration giving 50% inhibition (HUVEC; HUVEC growth, bFGF 10 ng/mL (FIG. 4B))	effect on basal HUVEC/EC growth (substance alone) (HUVEC)	VEGF stimulated HUVEC growth (HUVEC; 10 ng/mL VEGF)
B1	No inhibition	65 % of control	completely inhibited	30 µg/mL	inhibited	
B2					neither rsctPA nor alatPA could stimulate EC growth	
B3			significantly inhibited		significantly inhibited	significantly inhibited
